Measured values as given in publication PMC11117730, “A Novel Bifunctional Fusion Protein (Anti-IL-17A-sST2) Protects against Acute Liver Failure, Modulating the TLR4/MyD88 Pathway and NLRP3 Inflammasome Activation” (Biomedicines, 2024).

Molecular target: T1, sST2-Fc (mouse, UniProt P14719 27-332)
T1 construct: mouse ST2L (IL-33 receptor), amino acids 27-332, cloned into a pTT5 vector that contains the human IgG4 Fc domain; also called soluble ST2 Fc fusion
T1 sequence (looked up): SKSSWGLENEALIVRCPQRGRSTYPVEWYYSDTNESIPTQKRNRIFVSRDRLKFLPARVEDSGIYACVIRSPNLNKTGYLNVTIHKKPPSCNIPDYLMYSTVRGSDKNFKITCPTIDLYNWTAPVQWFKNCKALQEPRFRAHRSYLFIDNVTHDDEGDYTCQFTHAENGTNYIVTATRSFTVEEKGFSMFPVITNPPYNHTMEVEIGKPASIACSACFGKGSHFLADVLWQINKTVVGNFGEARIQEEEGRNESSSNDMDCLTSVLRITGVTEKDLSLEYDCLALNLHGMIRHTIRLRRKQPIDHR
Test: SPR; Biacore T200; antigen (mouse IL-33) immobilised on CM5 by amine coupling; proteins flowed in a 2-fold dilution series for 120 s, dissociation 480 s
Conditions: both partners purified

Kd: 174 pM
B1: mouse IL-33 (ligand)
chain: SIQGTSLLTQSPASLSTYNDQSVSFVLENGCYVINVDDSGKDQEQDQVLLRYYESPCPASQSGDGVDGKKLMVNMSPIKDTDIWLHANDKDYSVELQRGDVSPPEQAFFVLHKKSSDFVSFECKNLPGTYIGVKDNQLALVEEKDESCNNIMFKLSKI
